In the supplement of paper PMC7877785:
± gives the uncertainty stated by the source.

Assay: self-splicing fitness, log relative to wild type (ln ratio); higher = more splicing; Tetrahymena group I intron in knt gene, E. coli kanamycin selection, DiMSum; sequences stand for … in CUCUCU…GGAGGGAAAAGUUAUCAGGCAUGCACCUGGUAGCUAGUCUUUAAACCAAUAGAUUGCAUCGGUUUAAAAGGCAAGACCGUCAAAUUGCGGGAAAGGGGUCAACAGCCGUUCAGUACCAAGUCUCAGGGGAAACUUUGAGAUGGCCUUGCAAAGGGUAUGGUAAUAAGCUGACGGACAUGGUCCUAACCACGCAGCCAAGUCCUAAGUCAACAGAUCUUCUGUUGAUAUGGAUGCAGUUCACAGACUAAAUGUCGGUCGGGGAAGAUGUAUUCUUCUCAUAAGAUAUAGUCGGACCUCUCCUUAAUGGGAGCUAGCGGAUGAAGUGAUGCAACACUGGAGCCGCUGGGAACUAAUUUGUAUGCGAAAGUAUAUUGAUUAGUUUUGGAGUACUCGUGGUCG
Procedure, shortened: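 Colonies from six replicate transformations of E. coli BL21(DE3) were pooled and amplicon-sequenced on an Illumina HiSeq 2500. The library placed an intron with all eight P1ex-region nucleotides randomised inside the knt kanamycin-resistance gene on pET-22b(+), and cells grew overnight at 37°C or 30°C on LB agar with or without 25 μg/mL kanamycin (plus 100 μg/mL carbenicillin, 50 μM IPTG, 0.2% rhamnose). Fitness is the DiMSum error-weighted combination of wild-type-normalised replicate fold changes, kanamycin versus none.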

Sequence | self-splicing fitness (ln) (30 °C) | self-splicing fitness (ln) (37 °C)
UCCCAGCAAUAUUACGAGAA | -1.87 ± 0.18 | -0.452 ± 0.13
UCCCAGCAAUAUUACGAGCG | -3.32 ± 0.33 | -2.02 ± 0.26
UCCCAGCAAUAUUACGAGGU | -1.76 ± 0.071 | -0.885 ± 0.073
UCCCAGCAAUAUUACGCAAU | -2.69 ± 0.11 | -2.16 ± 0.13
UCCCAGCAAUAUUACGCAGC | -3.71 ± 0.29 | -3.19 ± 0.47
UCCCAGCAAUAUUACGCAGU | -1.21 ± 0.075 | -0.7 ± 0.1
UCCCAGCAAUAUUACGCAUC | -4.39 ± 0.42 | -1.85 ± 0.22
UCCCAGCAAUAUUACGCCAG | -2.08 ± 0.23 | -2.27 ± 0.49
UCCCAGCAAUAUUACGCCGA | -0.426 ± 0.1 | 0.659 ± 0.13
UCCCAGCAAUAUUACGCGGU | -3.01 ± 0.13 | -0.898 ± 0.087
UCCCAGCAAUAUUACGCGUC | -3.15 ± 0.19 | -1.47 ± 0.18
UCCCAGCAAUAUUACGCUCU | -2.77 ± 0.16 | -1.7 ± 0.17
UCCCAGCAAUAUUACGCUUA | -2.26 ± 0.14 | -0.458 ± 0.11
UCCCAGCAAUAUUACGGAGC | -1.44 ± 0.098 | -1.44 ± 0.18
UCCCAGCAAUAUUACGGUGU | -0.353 ± 0.043 | 0.504 ± 0.055
UCCCAGCAAUAUUACGGUUA | -0.244 ± 0.071 | 0.0867 ± 0.077
UCCCAGCAAUAUUACGUAAU | -2.01 ± 0.068 | -0.749 ± 0.085
UCCCAGCAAUAUUACGUACG | -3.27 ± 0.2 | -2.93 ± 0.3
UCCCAGCAAUAUUACGUAUG | -3.3 ± 0.16 | -2.2 ± 0.16
UCCCAGCAAUAUUACGUCCA | -1.51 ± 0.12 | -0.587 ± 0.12

Sequence | self-splicing fitness (ln) (30 °C) | self-splicing fitness (ln) (37 °C)
UCCCAGCAAUAUUACGUGUC | -2.9 ± 0.15 | -2.44 ± 0.16
UCCCAGCAAUAUUACGUGUU | -3.33 ± 0.12 | -2.19 ± 0.11
UCCCAGCAAUAUUACGUUGA | -1.26 ± 0.066 | 0.408 ± 0.075
UCCGAGCAAUAUUACGAAAA | – | -1.07 ± 0.37
UCCGAGCAAUAUUACGAACA | -3.11 ± 0.47 | –
UCCGAGCAAUAUUACGAAGG | -2.07 ± 0.11 | -1.43 ± 0.13
UCCGAGCAAUAUUACGACGC | – | -1.61 ± 0.42
UCCGAGCAAUAUUACGACGU | -1.05 ± 0.07 | 0.0752 ± 0.11
UCCGAGCAAUAUUACGAGAG | -2.57 ± 0.16 | -2.91 ± 0.21
UCCGAGCAAUAUUACGAGUG | -2.41 ± 0.09 | -1.34 ± 0.094
UCCGAGCAAUAUUACGAUCG | -3.27 ± 0.27 | -2.51 ± 0.34
UCCGAGCAAUAUUACGAUGU | -3 ± 0.22 | -1.87 ± 0.17
UCCGAGCAAUAUUACGCACU | -2.93 ± 0.25 | -1.99 ± 0.22
UCCGAGCAAUAUUACGCCAG | -3.95 ± 0.28 | -2.24 ± 0.31
UCCGAGCAAUAUUACGCUAC | -2.97 ± 0.38 | –
UCCGAGCAAUAUUACGCUAU | -2.09 ± 0.24 | -3.2 ± 0.33
UCCGAGCAAUAUUACGCUCC | -1.58 ± 0.41 | –
UCCGAGCAAUAUUACGCUGA | -2.04 ± 0.12 | -1.97 ± 0.14
UCCGAGCAAUAUUACGCUUG | -3.49 ± 0.28 | -2.09 ± 0.25
UCCGAGCAAUAUUACGGACA | -2.33 ± 0.18 | -0.762 ± 0.13
